Target: T1, RAD51B;RAD51C;RAD51D;XRCC2 (Homo sapiens;Homo sapiens;Homo …, UniProt O15315;O43502;O75771;O43543 1-384;1-376;1-328;1-280, |||)
T1 sequence 1: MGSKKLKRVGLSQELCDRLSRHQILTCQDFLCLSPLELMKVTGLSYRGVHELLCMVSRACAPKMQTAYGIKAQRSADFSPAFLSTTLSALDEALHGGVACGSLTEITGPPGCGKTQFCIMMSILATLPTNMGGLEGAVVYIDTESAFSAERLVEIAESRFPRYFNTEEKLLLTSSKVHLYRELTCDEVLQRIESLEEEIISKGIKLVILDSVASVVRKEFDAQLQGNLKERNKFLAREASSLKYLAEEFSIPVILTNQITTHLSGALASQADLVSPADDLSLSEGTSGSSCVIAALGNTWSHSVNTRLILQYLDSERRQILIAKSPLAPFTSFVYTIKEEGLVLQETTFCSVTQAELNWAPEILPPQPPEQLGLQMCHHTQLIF
T1 sequence 2: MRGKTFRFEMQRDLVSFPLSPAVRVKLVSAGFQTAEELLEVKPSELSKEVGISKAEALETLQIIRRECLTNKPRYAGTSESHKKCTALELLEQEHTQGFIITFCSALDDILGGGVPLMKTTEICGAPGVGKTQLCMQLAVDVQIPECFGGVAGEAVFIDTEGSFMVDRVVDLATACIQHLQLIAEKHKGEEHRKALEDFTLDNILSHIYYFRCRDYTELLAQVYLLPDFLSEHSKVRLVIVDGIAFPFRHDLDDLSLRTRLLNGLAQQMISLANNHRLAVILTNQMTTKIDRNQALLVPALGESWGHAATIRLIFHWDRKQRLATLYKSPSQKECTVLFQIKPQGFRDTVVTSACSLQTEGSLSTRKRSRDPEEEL
T1 sequence 3: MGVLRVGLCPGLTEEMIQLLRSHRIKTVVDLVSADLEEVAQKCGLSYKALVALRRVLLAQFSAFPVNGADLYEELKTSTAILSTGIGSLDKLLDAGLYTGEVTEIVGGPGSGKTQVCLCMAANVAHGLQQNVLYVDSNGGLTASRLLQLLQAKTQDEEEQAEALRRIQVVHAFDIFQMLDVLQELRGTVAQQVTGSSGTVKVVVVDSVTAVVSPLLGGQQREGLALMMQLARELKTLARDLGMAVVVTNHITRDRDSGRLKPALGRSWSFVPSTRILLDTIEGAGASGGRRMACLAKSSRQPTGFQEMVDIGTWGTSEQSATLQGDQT
T1 sequence 4: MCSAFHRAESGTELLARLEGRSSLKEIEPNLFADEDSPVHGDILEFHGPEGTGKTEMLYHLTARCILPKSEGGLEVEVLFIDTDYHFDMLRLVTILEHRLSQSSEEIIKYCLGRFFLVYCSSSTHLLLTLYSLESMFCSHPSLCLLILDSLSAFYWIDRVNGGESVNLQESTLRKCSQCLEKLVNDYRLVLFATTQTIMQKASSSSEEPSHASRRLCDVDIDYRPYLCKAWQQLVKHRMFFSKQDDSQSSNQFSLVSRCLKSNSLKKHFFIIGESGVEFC
Test: EMSA; 1 mM ATP, 1 mM Mg acetate; EMSA: 1 nM DNA, 20 mM Tris-acetate pH 7.5, 1 mM DTT, 1 mM magnesium acetate, 0.1 mg/ml BSA, 1 mM ATP, 30 min at 37 C; 6% PAGE in 1x TBE at 4 C
Settings: protein: recombinant;recombinant;recombinant;recombinant; tags: FLAG;10xHis;none;none; copies: 1;1;1;1; label: 5'-32P

B1: 70-mer ssDNA (PC210) (ssDNA)
DNA: GTAAGTGCCGCGGTGCGGGTGCCAGGGCGTGCCCTTGGGCTCCCCGGGCGCGTACTCCACCTCATGCATC
B1: binds.

From paper PMC9371921, “Strand annealing and motor driven activities of SMARCAL1 and ZRANB3 are stimulated by RAD51 and the paralog complex” (Nucleic Acids Research, 2022)
